Blank lines part the entries; values can stand above or below the binder they belong to.
Tests used:
[1] = molecular target: T1, Human-TNFR2-His (manufacturer: SINO, CAT: 10417-H08H) (human, UniProt P20333 23-257); test: flow cytometry, bridging: CHOK1-18.2 cells (human Claudin18.2) + 150 nM antibody + human TNFR2-His, anti-His FITC detection
T1 construct: Bought protein; also called human TNFR2 protein; TNFR2 protein; not shown: His tag
T1 sequence (looked up): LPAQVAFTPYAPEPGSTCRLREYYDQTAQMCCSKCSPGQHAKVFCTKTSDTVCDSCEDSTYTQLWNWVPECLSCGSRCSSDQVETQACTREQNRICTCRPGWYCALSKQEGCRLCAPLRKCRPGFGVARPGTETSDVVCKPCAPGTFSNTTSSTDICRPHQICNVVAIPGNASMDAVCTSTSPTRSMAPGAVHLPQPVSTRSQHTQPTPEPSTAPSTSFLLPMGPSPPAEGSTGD
Procedure: Human TNFR2 protein (SINO, CAT: 10417-H08H) was sequentially added into 96-well plate with 100 μL/well, and after mixing, the 96-well plate was incubated at 4° C. for 1 h. Pre-cooled dilution was added and washed once, centrifuged (3000 rpm, 3 min), and the supernatant was discarded, and the cells were harvested. Fluorescent secondary antibody Anti-6X-his tag antibody (FITC) (manufacturer: abcam, Cat. No.: ab1206, Lot No.: GR3420599-3) was taken and diluted at the used concentration of 1:500. 100 μL of dilution was added to the blank control group, and 100 μL of fluorescent secondary antibody dilution was added to the rest of the sample groups respectively. After incubation for 0.5 h at room temperature and 4° C. protected from light, PBS was added to wash and centrifuged (3000 rpm, 3 min) twice. After discarding the supernatant, 80 μL of the dilution was added and resuspended.

[2] = molecular target: T1, Human-TNFR2-His (manufacturer: SINO, …); test: ELISA: Human-TNFR2-His coated (0.3 µg/mL), antibody titrated, goat anti-human IgG Fc detection, OD450 (Example 2)
Procedure: Human-TNFR2-His (manufacturer: SINO, CAT: 10417-H08H, LOT: LC15NO0412) was diluted to 0.3 μg/mL with a coating solution (1×PBS, pH7.4), and coated into a 96-well ELISA plate at 100 μL/well overnight at 4° C. The coating solution was poured off. Each well was washed with 1×PBST at 300 μL, washed 4 times with a plate washer, and patted dry on a flat paper. It was blocked with 3% skim milk powder at 300 μL/well, and incubated at 37° C. for 1 h. The blocking solution was poured off, washed 4 times with a plate washer, and patted dry on a flat paper. Negative control and positive control were set up. […] The positive control and antibody were diluted to 10 μg/mL with 3% skim milk powder as the starting concentration, and then diluted by 3-fold gradient (11 gradients in total). A blank well was set up and only the diluent was added. It was incubated at 37° C. for 1 h at 100 μL/well. The liquid in the well was discarded, washed 4 times with a plate washer, and patted dry on a flat paper. Goat anti-human IgG Fc was diluted with 3% skim milk powder at 1:20000, and incubated at 37° C. for 1 h at 100 μL/well. It was washed 6 times with a plate washer, and patted dry on a flat paper. TMB color developing solution was added at 100 μL/well, and wrapped with aluminum foil. Color development was performed at 37° C. in the dark for 8 min. Termination solution 1M HCl was added to terminate the color development reaction at 100 μL/well. Readings were taken at 450 nm on an ELISA reader.

[3] = molecular target: T2, Human-B7H3 His (manufacturer: Acro, CAT: TB73-H52E2) (human, UniProt Q5ZPR3-2 29-245); test: ELISA: Human-B7H3 His coated (0.3 µg/mL), antibody titrated, goat anti-human IgG Fc detection, OD450 (Example 3)
T2 construct: also called human B7H3 protein; B7H3 protein; not shown: His tag
T2 sequence (looked up): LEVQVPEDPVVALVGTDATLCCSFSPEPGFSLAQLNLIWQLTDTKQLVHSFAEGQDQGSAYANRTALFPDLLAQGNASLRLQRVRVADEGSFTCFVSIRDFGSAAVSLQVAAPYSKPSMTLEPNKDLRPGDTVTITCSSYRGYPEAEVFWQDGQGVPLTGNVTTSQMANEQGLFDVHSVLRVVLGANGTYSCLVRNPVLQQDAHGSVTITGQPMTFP
Procedure: Human-B7H3 His (manufacturer: Acro, CAT: TB73-H52E2, LOT: 2052-21AXF1-YS) was diluted to 0.3 μg/mL with a coating solution (1×PBS, pH7.4), and coated into a 96-well ELISA plate at 100 μL/well overnight at 4° C. The coating solution was poured off. Each well was washed with 1×PBST at 300 μL, washed 4 times with a plate washer, and patted dry on a flat paper. It was blocked with 3% skim milk powder at 300 μL/well, and incubated at 37° C. for 1 h. The blocking solution was poured off, washed 4 times with a plate washer, and patted dry on a flat paper. Negative control and positive control were set up. […] The variable region of the antibody sequence of the positive control consists of SEQ ID NO: 1 and SEQ ID NO: 5, with the constant region of human IgG1 added (SEQ ID NO: 85 and SEQ ID NO: 86). The positive control and antibody were diluted to 10 μg/mL with 3% skim milk powder as the starting concentration, and then diluted by 3-fold gradient (11 gradients in total). A blank well was set up and only the diluent was added. It was incubated at 37° C. for 1 h at 100 μL/well. The liquid in the well was discarded, washed 4 times with a plate washer, and patted dry on a flat paper. Goat anti-human IgG Fc was diluted with 3% skim milk powder at 1:20000, and incubated at 37° C. for 1 h at 100 μL/well. It was washed 6 times with a plate washer, and patted dry on a flat paper. TMB color developing solution was added at 100 μL/well, and wrapped with aluminum foil. Color development was performed at 37° C. in the dark for 8 min. Termination solution 1M HCl was added to terminate the color development reaction at 100 μL/well. Readings were taken at 450 nm on an ELISA reader.

[4] = molecular target: T2, Human-B7H3 His (manufacturer: Acro, …); test: BLI, antibody on AHC sensor, 100 nM His-tagged protein (Acro TB73-H52E2) in solution
[5] = molecular target: T1, Human-TNFR2-His (manufacturer: SINO, …); test: BLI, antibody on AHC sensor, 100 nM human-TNFR2-His in solution
Procedure: The AHC sensor was soaked in 0.02% PBST (0.02% Tween 20, pH 7.4, 1×PBS) as a buffer for 600 s to remove the sucrose covering the sensor surface. The AHC sensor was equilibrated with 0.02% PBST (0.02% Tween 20, pH 7.4, 1×PBS) as a buffer for 60 s, the antibody in the sample plate was solidified for 300 s, and the secondary equilibration buffer was used for 180 s. 100 nM human-TNFR2-His (manufacturer: SINO, CAT: 10417-H08H, LOT: LC12SE2902) protein was bound to the antibody for 300 s and then dissociated for 600 s. After dissociation, 10 mM glycine (pH 2.0) was used as a regeneration buffer for 30 s. The sensor was regenerated with 10 mM glycine (pH 2.0).

E1 Mean FITC-A [1]: 217000
B1: TC-A2 (bispecific antibody, human IgG1, kappa)
light: EIVMTQSPPTLSLSPGERVTLSCKSSQSLLNSGNQKNYLTWYQQKPGQAPRLLIYWASTRESSIPARFSGSGSGTDFTLTISSLQPEDFAVYYCQNNYIYPLTFGGGTKLELKRTVAAPSVFIFPPSDEQLKSGTASVVCLLNNFYPREAKVQWKVDNALQSGNSQESVTEQDSKDSTYSLSSTLTLSKADYEKHKVYACEVTHQGLSSPVTKSFNRGEC
heavy: not shown

E1 Mean FITC-A [1]: 248000
B2: TC-F2 (bispecific antibody, human IgG1, kappa)
light: EVQLVQSGAEVKKPGATVKISCKVSGYSITDYLLHWVQQAPGKCLEWMGWIDPEDAKTKYGQKFQSRVTITADTSTDTAYMELSSLRSEDTAVYYCAANSGTGTMDAWGQGTLVTVSSGGGGSGGGGSGGGGSDIVMTQSPATLSVSPGERATLSCKASQNVGSNVDWYQQKPGQSPRVLIYKASIRYTGIPARFSGSGSGTEFTLTISILQSEDFAVYFCMQSKSYPITFGCGTKLEIKGGGGSGGGGSGGGGSEIVMTQSPPTLSLSPGERVTLSCKSSQSLLNSGNQKNYLTWYQQKPGQAPRLLIYWASTRESSIPARFSGSGSGTDFTLTISSLQPEDFAVYYCQNNYIYPLTFGGGTKLELKRTVAAPSVFIFPPSDEQLKSGTASVVCLLNNFYPREAKVQWKVDNALQSGNSQESVTEQDSKDSTYSLSSTLTLSKADYEKHKVYACEVTHQGLSSPVTKSFNRGEC
heavy: not shown

binding result [2]: binds
B3: TB-E (bispecific antibody, human IgG1, kappa)
light: DIVMTQSPATLSVTPGDRVSLSCRASQSISDYLHWYQQKSHESPRLLIKYASQSISGIPSRFSGSGSGSDFTLSINSVEPEDVGVYYCQNGHSFPLTFGAGTKLELKRTVAAPSVFIFPPSDEQLKSGTASVVCLLNNFYPREAKVQWKVDNALQSGNSQESVTEQDSKDSTYSLSSTLTLSKADYEKHKVYACEVTHQGLSSPVTKSFNRGECGGGGSGGGGSEVQLVQSGAEVKKPGATVKISCKVSGYSITDYLLHWVQQAPGKCLEWMGWIDPEDAKTKYGQKFQSRVTITADTSTDTAYMELSSLRSEDTAVYYCAANSGTGTMDAWGQGTLVTVSSGGGGSGGGGSGGGGSDIVMTQSPATLSVSPGERATLSCKASQNVGSNVDWYQQKPGQSPRVLIYKASIRYTGIPARFSGSGSGTEFTLTISILQSEDFAVYFCMQSKSYPITFGCGTKLEIK
heavy: not shown
notes: also called antibody TB-E

binding result [2]: binds
EC50 (read off the curve) [3]: ~0.7 nM
B4: TB-A2 (bispecific antibody, human IgG4 S228P, kappa)
light: DIVMTQSPATLSVTPGDRVSLSCRASQSISDYLHWYQQKSHESPRLLIKYASQSISGIPSRFSGSGSGSDFTLSINSVEPEDVGVYYCQNGHSFPLTFGAGTKLELKRTVAAPSVFIFPPSDEQLKSGTASVVCLLNNFYPREAKVQWKVDNALQSGNSQESVTEQDSKDSTYSLSSTLTLSKADYEKHKVYACEVTHQGLSSPVTKSFNRGEC
heavy: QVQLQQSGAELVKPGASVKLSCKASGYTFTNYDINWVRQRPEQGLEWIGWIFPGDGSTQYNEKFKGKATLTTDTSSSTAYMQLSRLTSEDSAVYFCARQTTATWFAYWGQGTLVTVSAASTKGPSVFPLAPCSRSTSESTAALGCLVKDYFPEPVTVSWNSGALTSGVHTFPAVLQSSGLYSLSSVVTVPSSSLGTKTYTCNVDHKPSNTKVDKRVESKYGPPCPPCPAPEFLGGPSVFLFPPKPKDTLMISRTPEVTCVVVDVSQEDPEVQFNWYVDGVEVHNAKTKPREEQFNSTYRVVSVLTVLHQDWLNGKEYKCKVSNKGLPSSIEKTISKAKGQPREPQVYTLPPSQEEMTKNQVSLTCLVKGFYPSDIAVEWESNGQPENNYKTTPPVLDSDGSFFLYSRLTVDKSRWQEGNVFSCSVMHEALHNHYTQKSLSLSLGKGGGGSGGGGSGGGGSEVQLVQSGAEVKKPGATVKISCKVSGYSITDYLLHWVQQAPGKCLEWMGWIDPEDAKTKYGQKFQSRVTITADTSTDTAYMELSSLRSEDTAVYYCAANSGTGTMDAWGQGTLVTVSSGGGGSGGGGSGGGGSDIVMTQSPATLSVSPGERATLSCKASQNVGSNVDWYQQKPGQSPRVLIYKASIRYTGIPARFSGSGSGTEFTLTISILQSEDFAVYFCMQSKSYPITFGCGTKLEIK
notes: also called antibody TB-A2

Kd [4]: 22 nM
koff [4]: 0.000894 s⁻¹
kon [4]: 40700 M⁻¹ s⁻¹
Kd [5]: 0.234 nM
koff [5]: 5.22e-05 s⁻¹
kon [5]: 223000 M⁻¹ s⁻¹
B5: TB-A1 (bispecific antibody, human IgG1, kappa)
light: DIVMTQSPATLSVTPGDRVSLSCRASQSISDYLHWYQQKSHESPRLLIKYASQSISGIPSRFSGSGSGSDFTLSINSVEPEDVGVYYCQNGHSFPLTFGAGTKLELKRTVAAPSVFIFPPSDEQLKSGTASVVCLLNNFYPREAKVQWKVDNALQSGNSQESVTEQDSKDSTYSLSSTLTLSKADYEKHKVYACEVTHQGLSSPVTKSFNRGEC
heavy: not shown
notes: also called antibody TB-A1

binding result [2]: binds
EC50 (read off the curve) [3]: ~0.2 µg/mL
B6: TB-B (bispecific antibody, human IgG1, kappa)
light: DIVMTQSPATLSVTPGDRVSLSCRASQSISDYLHWYQQKSHESPRLLIKYASQSISGIPSRFSGSGSGSDFTLSINSVEPEDVGVYYCQNGHSFPLTFGAGTKLELKRTVAAPSVFIFPPSDEQLKSGTASVVCLLNNFYPREAKVQWKVDNALQSGNSQESVTEQDSKDSTYSLSSTLTLSKADYEKHKVYACEVTHQGLSSPVTKSFNRGEC
heavy: not shown
notes: also called antibody TB-B

Kd [4]: 9.45 nM
koff [4]: 0.000311 s⁻¹
kon [4]: 33000 M⁻¹ s⁻¹
EC50 (read off the curve) [3]: ~0.2 µg/mL
Kd [5]: 1.35 nM
koff [5]: 0.000531 s⁻¹
kon [5]: 394000 M⁻¹ s⁻¹
B7: TB-D1 (bispecific antibody, human IgG1, kappa)
light: DIVMTQSPATLSVTPGDRVSLSCRASQSISDYLHWYQQKSHESPRLLIKYASQSISGIPSRFSGSGSGSDFTLSINSVEPEDVGVYYCQNGHSFPLTFGAGTKLELKRTVAAPSVFIFPPSDEQLKSGTASVVCLLNNFYPREAKVQWKVDNALQSGNSQESVTEQDSKDSTYSLSSTLTLSKADYEKHKVYACEVTHQGLSSPVTKSFNRGEC
heavy: not shown
notes: also called antibody TB-D1

E1 Mean FITC-A [1]: 260000
B8: TC-E2 (bispecific antibody, human IgG1, kappa)
light: EIVMTQSPPTLSLSPGERVTLSCKSSQSLLNSGNQKNYLTWYQQKPGQAPRLLIYWASTRESSIPARFSGSGSGTDFTLTISSLQPEDFAVYYCQNNYIYPLTFGGGTKLELKRTVAAPSVFIFPPSDEQLKSGTASVVCLLNNFYPREAKVQWKVDNALQSGNSQESVTEQDSKDSTYSLSSTLTLSKADYEKHKVYACEVTHQGLSSPVTKSFNRGECGGGGSGGGGSEVQLVQSGAEVKKPGATVKISCKVSGYSITDYLLHWVQQAPGKCLEWMGWIDPEDAKTKYGQKFQSRVTITADTSTDTAYMELSSLRSEDTAVYYCAANSGTGTMDAWGQGTLVTVSSGGGGSGGGGSGGGGSDIVMTQSPATLSVSPGERATLSCKASQNVGSNVDWYQQKPGQSPRVLIYKASIRYTGIPARFSGSGSGTEFTLTISILQSEDFAVYFCMQSKSYPITFGCGTKLEIK
heavy: not shown
